Measured values reported in US20170137467A1 (CHROMOTEK, published 2017).
Square brackets hold non-standard residues; d marks the D form. GABA = NCCCC(=O)O

What was measured:
Assay in all cases: peptide library pulldown on immobilized Nb, LC-MS of supernatant; ratio vs GFP-Nb control (1 = not captured, 0 = captured)
[1] = target: T1, BC2T S8V library peptide (human)
T1 construct: also called BC2TS8X: V
T1 peptide: Ac-PDRKAAVVHWQQ-NH2
Text: (§1) In total, 12 different BC2T libraries displaying all 20 proteinogenic amino acids in one single position of the peptide were used in immunoprecipitation experiments. […] The direct comparison with the GFP-Nb made it possible to determine the quantitative degree of peptide capture without the need of labeled standards. […] The more peptide was captured the more the value approximates 0. It was not possible to discriminate between isoleucine (I) and leucine (L) peptide versions since these peptides are isobaric.
(§2) To investigate the binding specificity of the BC2T and derived mutants peptide libraries for each amino acid position of the sequence […] (SEQ ID NO:4) were synthesized with acetyl and amide groups located at the N-termini or C-termini respectively (Intavis). […] Incubations were performed in 300 μl PBS/0.01% CHAPS for 1 h on a HulaMixer (Life Technologies). Subsequent to a centrifugation step 10 μl supernatant were analyzed in a LC-MS procedure. Peptides were separated using an UltiMate3000 RSLCnano System (Thermo Scientific), composed of a C18 PepMap100μ-Precolumn (300 μm×5 mm; particle size: 5 μm; pore size: 100 Å—Thermo Scientific) and a C18 analytical column (Acclaim Rapid Separation LC (RSLC) Column: 150 mm×5 mm; particle size: 2.2 μm; pore size: 100 Å—Thermo Scientific). A step gradient was applied starting at 8% and ending after 20 min at 30% eluent B (80% acetonitrile, 20% H₂O, 0.1% formic acid).

[2] = target: T2, BC2T Q12D library peptide (human)
T2 peptide: Ac-PDRKAAVSHWQD-NH2
Text: as §1, §2

[3] = target: T3, BC2T S8W library peptide (human)
T3 construct: also called BC2TS8X: W
T3 peptide: Ac-PDRKAAVWHWQQ-NH2
Text: as §1, §2

[4] = target: T4, BC2T S8T library peptide (human)
T4 construct: also called BC2TS8X: T
T4 peptide: Ac-PDRKAAVTHWQQ-NH2
Text: as §1, §2

[5] = target: T5, BC2T S8K library peptide (human)
T5 construct: also called BC2TS8X: K
T5 peptide: Ac-PDRKAAVKHWQQ-NH2
Text: as §1, §2

[6] = target: T6, BC2T H9A library peptide (human)
T6 peptide: Ac-PDRKAAVSAWQQ-NH2
Text: as §1, §2

[7] = target: T7, BC2T H9G library peptide (human)
T7 peptide: Ac-PDRKAAVSGWQQ-NH2
Text: as §1, §2

[8] = target: T8, BC2T H9Y library peptide (human)
T8 peptide: Ac-PDRKAAVSYWQQ-NH2
Text: as §1, §2

[9] = target: T9, BC2T H9C* library peptide (human, SMILES …)
T9 construct: also called C(Abu)
T9 peptide: Ac-PDRKAAVS[GABA]WQQ-NH2
Text: as §1, §2

[10] = target: T10, BC2T H9K library peptide (human)
T10 peptide: Ac-PDRKAAVSKWQQ-NH2
Text: as §1, §2

[11] = target: T11, BC2T W10A library peptide (human)
T11 construct: also called BC2TW10X: A
T11 peptide: Ac-PDRKAAVSHAQQ-NH2
Text: as §1, §2

[12] = target: T12, BC2T W10T library peptide (human)
T12 construct: also called BC2TW10X: T
T12 peptide: Ac-PDRKAAVSHTQQ-NH2
Text: as §1, §2

[13] = target: T13, BC2T W10Y library peptide (human)
T13 construct: also called BC2TW10X: Y
T13 peptide: Ac-PDRKAAVSHYQQ-NH2
Text: as §1, §2

[14] = target: T14, BC2T Q11V library peptide (human)
T14 peptide: Ac-PDRKAAVSHWVQ-NH2
Text: as §1, §2

[15] = target: T15, BC2T Q11N library peptide (human)
T15 peptide: Ac-PDRKAAVSHWNQ-NH2
Text: as §1, §2

[16] = target: T16, BC2T Q11K library peptide (human)
T16 peptide: Ac-PDRKAAVSHWKQ-NH2
Text: as §1, §2

[17] = target: T17, BC2T Q11E library peptide (human)
T17 peptide: Ac-PDRKAAVSHWEQ-NH2
Text: as §1, §2

[18] = target: T18, BC2T Q12A library peptide (human)
T18 peptide: Ac-PDRKAAVSHWQA-NH2
Text: as §1, §2

[19] = target: T19, BC2T Q12W library peptide (human)
T19 peptide: Ac-PDRKAAVSHWQW-NH2
Text: as §1, §2

[20] = target: T20, BC2T Q12S library peptide (human)
T20 peptide: Ac-PDRKAAVSHWQS-NH2
Text: as §1, §2

ratio [1]: 0.2 | ratio [2]: 0.8 | ratio [3]: 0.9 | ratio [4]: 0.1 | ratio [5]: 0.9 | ratio [6]: 0.3 | ratio [7]: 0.7 | ratio [8]: 0.1 | ratio [9]: 0.3 | ratio [10]: 0.2 | ratio [11]: 1.1 | ratio [12]: 1.1 | ratio [13]: 1 | ratio [14]: 0.2 | ratio [15]: 0.2 | ratio [16]: 0.1 | ratio [17]: 0.4 | ratio [18]: 0.1 | ratio [19]: 0.2 | ratio [20]: 0.1
B1: BC2-Nb(R106E) (VHH)
VHH: QVQLVESGGGLVQPGGSLTLSCTASGFTLDHYDIGWFRQAPGKEREGVSCINNSDDDTYYADSVKGRFTIFMDNAKDTVYLQMNSLKPEDTAIYYCAEARGCKRGEYEYDFWGQGTQVTVSS
notes: Headlock mutant; immobilized on beads in the library pulldown
